Target: wild-type recombinant EBV gp350 (residues 1-470 of EBV gp350/220, BCCP, myc, hexa-histidine) (Epstein-Barr virus (B95-8); Escherichia …, UniProt P03200 1-470; P0ABD8 70-156)
Test: ELISA, wild-type gp350 on plate, MBP-CR2 SCR1-2 mutant in solution

wild-type recombinant EBV gp350 (residues 1-470 of EBV gp350/220, BCCP, myc, hexa-histidine), sequence (P03200 1-470, tags or fused parts left off): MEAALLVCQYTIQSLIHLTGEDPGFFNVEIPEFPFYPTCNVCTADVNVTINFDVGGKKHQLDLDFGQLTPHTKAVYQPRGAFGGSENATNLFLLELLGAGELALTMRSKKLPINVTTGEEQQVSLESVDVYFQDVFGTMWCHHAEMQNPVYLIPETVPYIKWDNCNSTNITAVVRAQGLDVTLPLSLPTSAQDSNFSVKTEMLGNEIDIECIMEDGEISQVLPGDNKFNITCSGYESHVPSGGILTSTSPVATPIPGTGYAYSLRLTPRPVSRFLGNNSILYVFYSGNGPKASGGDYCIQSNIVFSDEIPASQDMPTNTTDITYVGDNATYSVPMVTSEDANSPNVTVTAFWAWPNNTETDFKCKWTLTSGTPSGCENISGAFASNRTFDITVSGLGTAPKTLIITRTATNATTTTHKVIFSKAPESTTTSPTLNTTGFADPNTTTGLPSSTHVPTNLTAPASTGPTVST

B1: MBP-CR2 SCR1-2 K67A (receptor)
chain: ISCGSPPPILNGRISYYSTPIAVGTVIRYSCSGTFRLIGEKSLLCITKDKVDGTWDKPAPKCEYFNAYSSCPEPIVPGGYKIRGSTPYRHGDSVTFACKTNFSMNGNKSVWCQANNMWGPTRLPTCVSVFPLE
notes: not shown: MBP tag encoded by pMAL-p2x and the vector linker between MBP and CR2
B1 was tested, and the “decrease in EBV gp350 binding relative to wild-type” value was ~20%.

Reference: patent US20120108492A1 (REGENTS OF THE UNIVERSITY OF COLORADO, published 2012)
